Measured values reported in publication PMC3072145.

Tests used:
Hfq-NA = Hfq-NA (Escherichia coli, UniProt P0A6X3 1-102); assay: analytical ultracentrifugation
Hfq wt = Hfq wt (Escherichia coli, UniProt P0A6X3 1-102); assay: analytical ultracentrifugation

AAAAAAAAAAAAAAAAAA (ssRNA) [FAM-rA18]
binding result (Hfq-NA): binds
binding result (Hfq wt): binds
